These results are taken from the domain aggregation screens of Martell et al. (2025).

This data set can be described thus: soluble fraction after stress (log2 fold change); higher = more stays soluble; pooled small domains, quantitative proteomics. The following applies: stress: 50 degC. A digest of the protocol: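 Quantitative proteomics served as the high-throughput read-out for pooled custom libraries of small protein domains. Each was stressed at 50°C. Aggregation propensity is expressed as the base-two log fold change in soluble protein after stress. A higher value means a larger share of the protein remains in solution.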
Regarding “HMKTEVNITPGIIDWIERYVQTDKISSSMTEDFQHWKSGTKKPTFNQVEAFSKAINVPLGYFFLKTPPAE”, the “soluble fraction (log2)” value was -0.302. “HMKTFSFEILADTVKKQRKAKGMTQAELSEATGINRSMIGQMENMTFKPSIEQLEALSQALDFNVIDLYTE”: the “soluble fraction (log2)” value is -0.196.

“HMKTGHLPVTVIIDGRIISDNLYKTGLSNNWLADQLRKNSIKSSEDVFFAYLNPERKFIYQLRSNS”: the “soluble fraction (log2)” value was -1.01.

“HMKTGNIVMVNLGWKGKYYSIKMFFPQVSKPSRKDVQDQIEKIYPGGKLYTFVVSNYEPGEPMLHA”: the “soluble fraction (log2)” value was -1.06.

Turning to “HMKTITLDEAQEIALAEVDGKVTRAVEETDDGRSYYEFDIITNDQKHELEVDASSGKITKNEIDEDYVPS”, the “soluble fraction (log2)” value is 0.171. In the case of “HMKTITVEDEQAGKRLDKALAELFPHYSRSALEKLIKEGQVLVNKSFVKSKYSLKLGDEISLQFEQL”, the “soluble fraction (log2)” value stood at 0.173. On to “HMKTKILAPIPGSIMVVDVKVGDTVKVGDRLVQLEAMKMENNITSEKAGKITAVLVTAGQKVLQNEVMIEL”, for which the “soluble fraction (log2)” value is -0.853. As for “HMKTLLSMNIKNLRKKKNMTLEELAEKVGTSKQTIQRYESGKISNIPSDKIELLAKYLDTTPAKLMGW”, the figure is 0.441; as for “HMKTLNKRQQDIINLAREEGFVTVEHLSEYFKVTQQTIRRDLGYLSENLYLARTYGGAFFQS”, -0.872. Take “HMKTTKLEELDMQKEFILKNGKYGFGVYIGGKYIGLTDIGTVNSFKDSLQLPVVSLSDIDFKTFAEKF”: the “soluble fraction (log2)” value is -0.757. Next, “HMKTYEILFDILSRESDYISGEKLAQELGISRTSIWKAIQHLEKEGVHIESVKNKGYKLLSGDLLIAEKI”: -1.14; “HMKTYGGDNSLHKFDEHHSWMVAKYGPVVKQTINGETKWLKVKKDLTLAQVKKMKLEDVLLPKSQT”: -0.152. Consider “HMKVDRLVSMILILLEQQRVGAQELADRFEVSVRTIYRDMEAINQAGIPVRSTSGVGGGFEIM”, for which the “soluble fraction (log2)” value was -0.34. On to “HMKVFREERLQLILEKLIHEKKVVVSDLVKYFNVSPSLIRMDLAELEKRDLILRTHGGAILPD”, for which the “soluble fraction (log2)” value was -2.23. Next, “HMKVKEYKLVDWISTFTKNEGYGISQKAAMLLAEFLGDDLSRIANEIEKLKLLVEKGTTINDVHIEENI”: -0.797. On to “HMKVLFLESIEGSASMGEIKDVANGYARNFLFPNGFAVPATPKNLKNVEELQAKELEIQTERDNWAA”, for which the “soluble fraction (log2)” value is -0.0454. For “HMKVSDLIGMLGRVTGELAPTGIVLVGNKTWTAISEDASVIASGEQVQVRSVAGLILTVSHQVD”, the “soluble fraction (log2)” value is -2.15.

Turning to “HMKVSVPDIMDNSSLRQAEAKLRALGFRVTEPEYISGEKDWVYSVTYKGRTLNAGDKVPHEALLTLHVGNG”, the “soluble fraction (log2)” value is -0.0697. As to “HMKVTADVVVADRLKAWIISNNLKPGDRLPTEQKLSEELGVARHTLREGIKRLSQLGIIGSRTGSGMYVKN”, the “soluble fraction (log2)” value worked out at 0.0235. Regarding “HMKWIEILKSKDGNYALLQDEKDTQFVVASGYNPDAAEDQKWGHGSYFIYWNNKENKAEMLMNAIDLFRYR”, the “soluble fraction (log2)” value is -2.11. As for “HMKYEFEFPYWSNKEAKHMIVTINYPNGTRATASIQDNDGSNPDYKRIMEEFGEEQIDANTEEGLKRR”, the “soluble fraction (log2)” value is -0.0595. For the sequence “HMKYEGEDEYYASLVTEKIAAIGTVTEESEDAIKEARAAYDALTSAQKKLVTNYDVLDEAEK”, the “soluble fraction (log2)” value was determined as 0.371.

For “HMKYGPSTVATLKVARLGEMGAFLDAETGDTSDDILLHKTQQTAPVKVGDEVEVFLYLDPKRRLTASMRV”, the “soluble fraction (log2)” value was -0.107. Regarding “HMKYGPSTVAVLTVVRESEMGAFLDAETGRTNDDILLHKTQQTEPVHIGDQVKVFLYLDPKHRLTASMRVP”, the “soluble fraction (log2)” value is -1.16. As for “HMKYNETEFKNLVAKLYNGEIEIVGKFTGLSYPILVKDKYGIMLSQKANLILNYRPTINIALNKTEYAMN”, the figure is -0.0487; as for “HMKYSELLLEIILQSKEHPTAEQIFIEAKKRNPKIVQATVYNNLKNLLAQGRVIRISNPGQPDRYDNT”, -0.401; as for “HMKYVDYYATLGVARDADLATITKAYRKLARQTHPDLNQGADNEARFKAAAEAYATLKHPEKRAAYDELGQ”, -0.00408. As for “HMKYWTISDLYSKLEEDQVELGAFSEDSNKVTVLDRQGYEHVIKILSSDVPALTELFRKKKVRFAVAG”, the figure is -0.132; as for “HMKYYIYQGVGASGELTKIAEVTDQKTYTVTGLQAKTTYRFAVSSYNGLRESTKSNIVTVTT”, -0.313. “HMLAAAVVVYATDKVNVRAEASETADVIGQLEAGSQTTRLEDKDGWSRIDYSNGTQGYMKSEFLSTEAPT”: the “soluble fraction (log2)” value was -0.102. For “HMLADEPTGALDSKTSVQIMALLTEIAQDRLVIMVTHNPELADEYATRIVNLRDGVISDDSDPFNP”, the “soluble fraction (log2)” value is -0.079. Consider “HMLAEEAFNKQAATAGYVYRDGSYHPAASVAQYDAMPRNYRTNTMAQELSRSQVESQLQQSQ”, for which the “soluble fraction (log2)” value is 0.436.

In the case of “HMLAGKTYEVQTESGGKWTLVASYNVKSQAIQQAQALLESHKYSGVKVIAESDRKGEEVIFNEQSEVT”, the “soluble fraction (log2)” value is -0.0442.

For “HMLALKSGQVVVGTIIRRLDNTTAMLRIGNQLFETSFAKGLPKSNHILLRYDAMQGNRFIFTMVE”, the “soluble fraction (log2)” value is -0.191. Turning to “HMLANLNKELQNDAALLKQKAQGNSNLLAKIQDVEQQMKQVNTSSASDEAKAKELQTLQRKLTAYKKALA”, the “soluble fraction (log2)” value was determined as 0.0101.

With “HMLAVSVDKDGKVYIQDSETAVDAVTAKLRAISGNNSEIRIFVRGDADVNYGRIMEIMGVINAAGFRKVAL”, the “soluble fraction (log2)” value is -0.467. For “HMLDEIAGQKVRVLEEINNSEGTGKVMYRGVEWMARSVDDAVMAKDSIVTVQSISGVKLMVT”, the “soluble fraction (log2)” value is -0.0685. For “HMLDEKAVRQYLLNTLENSEIKMDRQAIDLFLRLTDLDLSKMMRELQKILLYGQEQEVITVKEIEQ”, the “soluble fraction (log2)” value was -0.856. Turning to “HMLDGFEVGMTVMKKSGTEIGFTGWPSFADKDELPIIERIDTSDSTLLLKFKDMSWWIKASLVEPS”, the “soluble fraction (log2)” value was -1.62. As to “HMLDLPEISARIMEVFETKDRATISELSKLTGTNINTIKKHLSSLVENNYLIKHGKTRGAWYTKST”, the “soluble fraction (log2)” value was -0.104. Regarding “HMLDLVSIGKRIKAERQKNGLTQEALAERIEVSAHYVYELERGLKAMSVPILLRMSEVLHTSTDYLLF”, the “soluble fraction (log2)” value is -2.9. For the sequence “HMLDNHPQSKKIRALWLEMAAAGVVRDSSEQALALWVKRETGISALRWLSNEQASSVIEKLKKWQRRAAG”, the “soluble fraction (log2)” value was -0.687. Next, “HMLDPKVFVGKAGINEGIAKLLLQAFDKADLVKVRFTAERDVMETQMQELARLTGSEVIGNVGRTATF”: -0.00291; “HMLEAMDSDEAAKVIEQIVNERADFVRSKGMGAIGPLMGPVMGALRGKVDGKQANELLTAAIKKLL”: 0.273.

Consider “HMLEASVYTAEKSGDRLDAFLAEQAGITRSYAQKLIEGGQVTLGGVVPKKNYKLSAGEQVELILPEN”, for which the “soluble fraction (log2)” value came to 0.0254. “HMLEKVLDNHIHKLRLQHKISQQELADAIGVSRKTISTVETGRFTPSVVIALKIAAHFSVSVEQVFTL”: the “soluble fraction (log2)” value is -0.964. Consider “HMLEPEVLDLIGQVKSVHHFSVTQSHQLEKLVRHAHTLGFEIAELKSLLASSPNAKSLLSSLDQKLEPLRM”, for which the “soluble fraction (log2)” value was -0.909.

In the case of “HMLEQEQFESKLLKAINNINETQRIAFLMHRIDGKKYAEIASELNISVKAVEKRIHLALIELKKEIENF”, the “soluble fraction (log2)” value was -0.871. For “HMLEQISDINILSGYAKEVIAENPKTVSDYLSGKAAAFQALVGQVMKKTGGRGNPVIIQEILKRLIHKK”, the “soluble fraction (log2)” value was 0.116.

Consider “HMLERKPVLVASRDLPALAVIGKDDLSVELLRTAPVGSYDRPEALLGKRVWVAVPAGSILSAATLEP”, for which the “soluble fraction (log2)” value is -0.103.

For “HMLERPLKLKSHYVSTIYEKVAVQYSEGEEKKSVMGTLIEVNQDTIVLDDRGTIIEIPFKSITRAKTVF”, the “soluble fraction (log2)” value is -0.245. As for “HMLETLVYPNPTTDKILLSSPVDYHLFSLKGELVLEGRGSSIEVSQLSKGVYFLNTKTQTFKIIK”, the figure is -0.383; as for “HMLGARSLNEAVARNLPQILAKYQLIHIAGKNGFNPELQGRGYVQYEYVDTELKDLMALADIVVSR”, -1.33. For the sequence “HMLGERIKQIRKQKKMTQTDVATGIITKSMLSMIENGKATPSLPALQAIARRLQVTVEELML”, the “soluble fraction (log2)” value was -0.512. For “HMLGFELVGIRGNNPESTIIILERDDYRLVEQGQNINSSVIFSHIDGSRAYFFDGQTYTFLDI”, the “soluble fraction (log2)” value is -2.95. Consider “HMLGITEGSLVRVIRSPNFGKIGTVAELPAELRMMESETMVRIAIVEIEGTNFEIPRSNLEVLET”, for which the “soluble fraction (log2)” value is -1.55. As for “HMLGKEVVRAYNISYAIDDKGSLQGDLTAALTGLIPLSKPPVLDQRNRSLYVTATPEQHKDVAALLAKL”, the figure is -0.171; as for “HMLGSGSKEQQLVILNNILERQVQAFNLQGGQEYPMVTLKNFYNTLSKMIENAGLKNVENYFVNPDVGKQM”, -0.302.

For “HMLHMKAALGELMSIPGMRSELAGTLFDRGYTSLAQLRAATLDDLERVNGLERADARRIHDFLRKS”, the “soluble fraction (log2)” value was -0.0753. Consider “HMLHQSLVVNAASGRVTVSLDIVPDEDNPYAVLRATDDSDEPLAQVRVAPSFKLNRASALAWIESQFARP”, for which the “soluble fraction (log2)” value is -0.821.

In the case of “HMLHSEDATVVRQAIPLLERHVDAATVAVARRNLAQLEQFGRYPRRNQALGRISNPAENAYLRAER”, the “soluble fraction (log2)” value was found to be 0.0897. Turning to “HMLIDQYPYSIIYRLIPHGRSNAVPAAQIVGLTKLDERSIRIYVEAMRREGHIIASSSKGYYFPASIEE”, the “soluble fraction (log2)” value was -2.83. Next, “HMLIGLNETESLVLDALIANPMRIDQVSAMLKKDVATTLKFLGGLSVRGLVETLFGGRFAPTKIALHARS”: -0.276.

Turning to “HMLIIMNSDATKEQVDHVTSRVREAGFKDHIMPGAGKVAIGVTGTGDYDQTKLHLEILPGVFKIMRITK”, the “soluble fraction (log2)” value was determined as 0.0895. Turning to “HMLIPADETEAKVLSVLSREPLHVDEIRNQAGLPIEKISATLALMELKGMVRQVGGMNYVSV”, the “soluble fraction (log2)” value came out at 0.122. For the sequence “HMLKDKLSDKDFDFYKNKIQIQLQGNPTELKELVRRFSSTEEQQILKTIDYMLDNGFLRIDEDNMIYWK”, the “soluble fraction (log2)” value was -0.00515. As for “HMLKDQSIAQLEKNLDDLKGLMRKMFGSSDVPKITKMISDIESSLANFNQSKANKLIVQTTNYISSKL”, the “soluble fraction (log2)” value is -0.36. For “HMLKEDSAYELGLRIFDQALNDYGTSFIDLKEDEYKKVLSIYGYSNPRQLIINIGLGNVIPHLLARDITE”, the “soluble fraction (log2)” value is -1.23. Next, “HMLKEGIKEKINQLQVYADKNDNIIWYDRVVDILSDKDDSVTDEMIEAAIRTLEEAGISVERKQ”: 0.0259.
